# The supplement of paper PMC12042874
# ± gives the uncertainty stated by the source.
# Assay: amyloid nucleation score (Sup35N fusion, yeast selection) (log enrichment); library NNK1; higher = more nucleation; inactive = no reads after selection
# Outline: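 Plasmid inserts were Illumina-sequenced at input and output from psi-negative yeast expressing Sup35N fused to peptides of 20 random codons. The yeast were induced with 100 μM copper sulfate for 24 hours and grown 7 days at 30°C on medium lacking adenine and uracil, and sequences with under 100 input reads were excluded. Nucleation score is the DiMSum log enrichment of output over input reads, centred on the mode score of non-aggregating sequences.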
row,Substance,amyloid nucleation score
1,LMAYNLGRPFAPFNCNVMGR,-0.268 ± 0.98
2,LMHRFPSINRLHTAPMPRAT,0.58 ± 1.1
3,LMRRAAVFFAGSRAGSRCLT,-0.675 ± 0.4
4,LMRYALSIPRRAYVVRRLVM,0.444 ± 1.2
5,LMVFAIRDLNFRHTILQPVP,-0.081 ± 0.42
6,LMWKNSGNYKLRCYRVV,-0.065 ± 0.21
7,LNCNV,1.24 ± 0.76
8,LNCRGVLDRTKSRVSHNNES,3.38 ± 0.18
9,LNDNLGSMFSL,-0.772 ± 0.64
10,LNDPMAGRLNNVRSGCLDDV,-0.059 ± 0.43
11,LNFCSVRVMEEISMVWCMVF,4.24 ± 0.11
12,LNISQRRIYFWSYWLHHITY,-0.282 ± 0.6
13,LNLRGDRN,0.304 ± 0.29
14,LNNAKCKLVSIFHLGVWVGM,-1.12 ± 0.96
15,LNQRWCCFTISALR,7.702 ± 0.076
16,LNRFLYDSCLFSCYFGYMVA,-0.017 ± 0.25
17,LNTGCDANQILAVCSRGVGV,0.793 ± 0.43
18,LPCHLPRLVPKGYPSFTLYK,-0.672 ± 0.4
19,LPDTCCR,0.994 ± 0.46
20,LPFGGAWVSLCLLRVICILR,inactive
21,LPLGYRLLAQPCPESSRTPA,0.001 ± 0.53
22,LPRNYTLLMPAVYIYVLVSW,inactive
23,LQCQN,0.702 ± 0.4
24,LQFNMVYVCYGWSSVYARSG,0.409 ± 0.28
25,LQFNSLAVLGVPGEMNEQTG,-0.228 ± 0.58
26,LRCCRVN,-0.474 ± 0.42

row,Substance,amyloid nucleation score
1,LRCRQKKYAAYRGTAVYWLL,-0.236 ± 0.76
2,LRDTRAWVLN,-0.295 ± 0.43
3,LRELSVCWPT,-0.153 ± 0.44
4,LRISSFDMDNSVWFSRVYNY,0.844 ± 0.26
5,LRKPKIYVTNRPTQGYGSTA,0.169 ± 0.55
6,LRLCWLNQVRNKQGL,-0.481 ± 0.92
7,LRLLSNVKWTKCS,0.367 ± 0.97
8,LRLRVTNVLILGSLGIDEMY,2.37 ± 0.28
9,LRPKWVAGDVLFQIYPWTRR,0.629 ± 0.85
10,LRPSPKVWHDFWGMM,0.437 ± 0.47
11,LRRFLPMALDDED,-0.676 ± 1.4
12,LRRSTFASVDLRRADFIKLF,0.165 ± 0.69
13,LRRVMFHRGMCHSVVRNGFG,-1.48 ± 1.6
14,LRSRR,1.41 ± 0.76
15,LRTCFEQRENMIA,-0.229 ± 0.79
16,LRTGQGHYDRVVGHRHNLCA,-1.42 ± 0.9
17,LRVNIPVTQSSTVIHY,0.91 ± 0.39
18,LRWPFCQGLYTYLCSLT,1.39 ± 0.47
19,LRYFDLVATNHDNMIYDQYL,-0.177 ± 0.68
20,LRYFGL,inactive
21,LSAKLQFCITIEYALRVTKC,-0.106 ± 1.7
22,LSALFLVPHYLDMVNLHSWR,-0.254 ± 0.44
23,LSDWWKTSMFGYPVYSVVAR,0.62 ± 0.36
24,LSEEWTIYKFNRRRMKIGRG,0.707 ± 0.4
25,LSEIFSCENGVVGSNSETLT,-0.107 ± 0.35
26,LSGVCRIFH,0.584 ± 0.35

row,Substance,amyloid nucleation score
1,LSHTTVRIDMGAAWRSLYSM,2.36 ± 0.13
2,LSIAHYGLNQSMSVRYREST,0.771 ± 0.66
3,LSKYGVCVALLCIWMGHNWC,0.22 ± 0.2
4,LSLCSLYNSWQGM,0.492 ± 0.4
5,LSMCYIFCDARYLYSQCFGV,4.38 ± 0.12
6,LSMGAHSGGPLQSY,-0.205 ± 1.1
7,LSMGLR,0.388 ± 0.68
8,LSMGRYRPKRFLLRNTSDTL,-0.438 ± 0.44
9,LSMNICSLNSSRYKPP,2.79 ± 0.098
10,LSMPMGNLEPL,-0.277 ± 0.19
11,LSMSTFVKVCDVNAYPKGTA,0.358 ± 1.1
12,LSQAASNLLSRNLVPLSWLV,inactive
13,LSRLRLSAAGSADRESLVVS,0.538 ± 0.5
14,LSSCFPIDRSEDSDVYGYFK,-0.252 ± 0.49
15,LSSGSKYFSKVVDASLVCAC,0.377 ± 0.77
16,LSSLGDLLLMNQPNAQRLTY,-0.746 ± 1
17,LSTAWFGQNAHRCLGLVTLA,-0.005 ± 0.59
18,LSVAHDGSLWVLFRKKPFGL,-0.106 ± 0.57
19,LSVICMFTY,4.74 ± 0.052
20,LSVIFTLSFLTAIFAVGIWS,0.301 ± 0.23
21,LSWCLPCLSARSVRSRRMVT,0.161 ± 0.25
22,LSWFC,-0.504 ± 0.43
23,LSWFPA,0.179 ± 0.27
24,LSYMSLFW,1.94 ± 0.16
25,LSYNTISGFIAYIIDMSPFV,inactive
26,LTDLLMFIVPWDNAQRLVCF,0.518 ± 0.89

row,Substance,amyloid nucleation score
1,LTDPLCQTPFFYLFCRDAQE,-0.142 ± 0.4
2,LTEDPGIRSSQR,0.055 ± 1
3,LTFCCIMYSIYHSQPDFCGL,2.37 ± 0.099
4,LTFLYLYWNFNIYGIYGTTI,0.91 ± 0.19
5,LTFRRRYRWGQGTCINFCRR,0.082 ± 0.67
6,LTFTLTDPDSHDANDKWPLH,-0.208 ± 0.66
7,LTGASSNTSVLVNWGVASYC,1.13 ± 0.62
8,LTGLVMTVCFFWKARRF,0.845 ± 0.86
9,LTHCAWVAFDA,1.7 ± 0.52
10,LTPRRYIWTYLSWGDAGLEL,1.02 ± 0.9
11,LTRAWSGWYVTFMGGEILIR,-0.118 ± 0.49
12,LTSFSTDPISGLLAGCFSID,inactive
13,LTSRNYESIY,-0.159 ± 0.24
14,LTTYFHFMSMTEWAWRRRSK,0.538 ± 0.29
15,LVALDNAENFRSRKQWIGIR,-0.599 ± 1.2
16,LVCDQLLIITLKCDERHQVT,7.474 ± 0.074
17,LVCFGFSNNCCELCCYYSNL,0.765 ± 0.61
18,LVFDGNLETCRQ,0.164 ± 0.61
19,LVGRSFSCEPRLYTFCEFCG,2.61 ± 0.18
20,LVITVYLYVRRDFCFAFGWL,-1.06 ± 1.2
21,LVLSWSWICFL,7.39 ± 0.059
22,LVLVNSTWCTYPCGWMCEME,0.488 ± 1.2
23,LVMHVSWNVFIAVVLIFKDG,0.375 ± 0.43
24,LVMYCWRTYVYLRTSRGYDA,0.259 ± 0.61
25,LVNGTMFINPCYVQGRCKEM,2.27 ± 0.12
26,LVNRVKRCAMNVHLSIGGDR,-0.479 ± 0.44

row,Substance,amyloid nucleation score
1,LVPPVFRP,-1.11 ± 1.1
2,LVPWGSFFALA,-0.146 ± 0.97
3,LVQVWLKN,0.43 ± 0.34
4,LVSQLSFACN,0.92 ± 0.83
5,LVVLSTVDA,-0.279 ± 0.67
6,LVVNEFALVNKPDINFCLPQ,4.56 ± 0.092
7,LVWRFS,1.56 ± 0.28
8,LWDIFFRSLSVLAYNIKMFS,-0.552 ± 1
9,LWFDYFPF,-0.096 ± 0.43
10,LWFINVLNK,5.103 ± 0.049
11,LWGIMYTM,-0.026 ± 0.93
12,LWHFWGYGGALP,-0.738 ± 0.75
13,LWLTFFSQ,2.35 ± 0.11
14,LWNLVLKCD,-0.215 ± 0.29
15,LWRRWNCFT,inactive
16,LWSLVCSELCWDVLFNALPG,-1.03 ± 0.71
17,LWSVKEGWGRPEAGHRQLWG,-0.413 ± 0.52
18,LWTLVQTASSTWALLTGTTN,-0.066 ± 0.65
19,LWVNTDSSLECHRWLRVIV,1.2 ± 0.37
20,LYCMGVLPSLLAISMVWVRG,2.94 ± 0.2
21,LYDFINYG,-0.592 ± 1.2
22,LYEAMPKTLAGIWSTPNMCV,-0.507 ± 0.93
23,LYFVLPTNKLPDRSY,-0.403 ± 0.84
24,LYFVSSAFSSQS,0.014 ± 0.27
